The target in the first assay is FcγRIIIa on human PBMCs expressing heterozygous V158/F158 FcγRIIIa (human) (UniProt P08637). Put plainly: cell-based or functional assay.
His-tagged V158 FcγRIIIa (human), sequence (P08637 17-208 F176V limits assumed): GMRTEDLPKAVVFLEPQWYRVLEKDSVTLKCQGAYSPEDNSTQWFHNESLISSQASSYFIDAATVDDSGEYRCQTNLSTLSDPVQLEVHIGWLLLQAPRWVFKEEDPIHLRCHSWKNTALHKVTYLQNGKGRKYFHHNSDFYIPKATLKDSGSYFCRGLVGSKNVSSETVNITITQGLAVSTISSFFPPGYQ
Regarding alemtuzumab S239D/I332E (antibody), the ADCC EC50 (DELFIA EuTDA, DoHH-2 target cells) came to 3 ng/mL.
The substance alemtuzumab V264I/I332E (antibody) had an ADCC EC50 (DELFIA EuTDA, DoHH-2 target cells) of 4 ng/mL.

The next assay deals with extracellular region of human V158 FcγRIIIa fused with glutathione S-Transferase (GST) (human) (UniProt P08637). Put plainly: AlphaScreen competition. (Alpha assays give light when donor and acceptor beads are brought close together.)
extracellular region of human V158 FcγRIIIa fused with glutathione S-Transferase (GST) (human), sequence (P08637 17-208 F176V): as the sequence (P08637 17-208 F176V limits assumed) above
alemtuzumab A298H (antibody) yielded a FcγRIIIa Fold of 0.27 fold.
Consider trastuzumab E233D (antibody), for which the FcγRIIIa Fold is 0.85 fold.
Substance trastuzumab E272Y (antibody) yielded a FcγRIIIa Fold of 8.7 fold.
Take trastuzumab E283R (antibody): the FcγRIIIa Fold came out at 0.67 fold.
Still for that read-out and setting: to trastuzumab E318R (antibody) belongs 1.06 fold; to trastuzumab E333H (antibody), 0.75 fold.
As to trastuzumab E333T (antibody), the FcγRIIIa Fold stood at 0.78 fold.
Turning to trastuzumab F275W (antibody), the FcγRIIIa Fold is 1.11 fold.
On the same count and under the same terms, to trastuzumab K274E (antibody) belongs 6.11 fold.
trastuzumab K274L (antibody): the FcγRIIIa Fold turned out to be 1.09 fold.
The substance trastuzumab K274R (antibody) registered a FcγRIIIa Fold of 1.41 fold.
For trastuzumab K274T (antibody), the FcγRIIIa Fold was 1.41 fold.
In the case of trastuzumab K274Y (antibody), the FcγRIIIa Fold stood at 1.06 fold.
trastuzumab K326I (antibody) yielded a FcγRIIIa Fold of 1.43 fold.
As to trastuzumab K326T (antibody), the FcγRIIIa Fold was 1.88 fold.
Still for that read-out and setting: the value for trastuzumab L234I/L235D (antibody) was 0.07 fold; that for trastuzumab N276E (antibody) was 0.87 fold.
As to trastuzumab N276R (antibody), the FcγRIIIa Fold came to 0.66 fold.
Turning to trastuzumab N276S (antibody), the FcγRIIIa Fold is 0.41 fold.
Substance trastuzumab N276Y (antibody) had a FcγRIIIa Fold of 0.56 fold.
Turning to trastuzumab P230A (antibody), the FcγRIIIa Fold is 1.09 fold.
In turn, trastuzumab P230A/E233D (antibody) displayed a FcγRIIIa Fold of 0.92 fold.
In turn, “trastuzumab P230A/E233D/I332E (antibody)” showed a FcγRIIIa Fold of 1.87 fold.
Same read-out and setting: the value for “trastuzumab S239D/A330Y/I332E/K326E (antibody)” was 64.1 fold; that for “trastuzumab S239D/A330Y/I332E/L234I (antibody)” was 22.4 fold; that for “trastuzumab S239D/A330Y/I332E/L235D (antibody)” was 7.04 fold.
Consider “trastuzumab S239D/A330Y/I332E/V240I (antibody)”, for which the FcγRIIIa Fold was determined as 28 fold.
On the same count and under the same terms, the value for “trastuzumab S239D/A330Y/I332E/V264T (antibody)” was 17.7 fold.
Regarding “trastuzumab S239D/I332E/A330I (antibody)”, the FcγRIIIa Fold stood at 59.1 fold.
Still for that read-out and setting: the value for trastuzumab S324R (antibody) was 0.71 fold.
trastuzumab S324V (antibody): the FcγRIIIa Fold is 1.17 fold.
In the case of trastuzumab S324Y (antibody), the FcγRIIIa Fold was determined as 0.98 fold.
For the substance trastuzumab T335D (antibody), the FcγRIIIa Fold amounted to 2.79 fold.
The substance trastuzumab T335R (antibody) showed a FcγRIIIa Fold of 2.58 fold.
Still for that read-out and setting: the value for trastuzumab T335Y (antibody) was 1.56 fold; that for trastuzumab V240I/V266I (antibody) was 1.72 fold; that for trastuzumab V273I (antibody) was 0.79 fold.
trastuzumab V302I (antibody) registered a FcγRIIIa Fold of 1.01 fold.
The same measure, in the same setting: to trastuzumab V323I (antibody) belongs 0.83 fold; to trastuzumab Y278E (antibody), 0.9 fold.
trastuzumab Y278T (antibody): the FcγRIIIa Fold was found to be 1.87 fold.
Turning to trastuzumab Y278W (antibody), the FcγRIIIa Fold came out at 0.41 fold.

A further assay concerns the target His-tagged V158 FcγRIIIa (human) (UniProt P08637). Put plainly: SPR, receptor immobilized. On the technique in general: SPR reads the build-up and loss of mass on a sensor chip optically.
The Kd is the equilibrium constant for the complex coming apart. A lower Kd goes with tighter binding. Turning to WT alemtuzumab (antibody), the Kd came to 0.068 µM. In other words, the double-digit nanomolar range.
In turn, alemtuzumab I332E (antibody) had a Kd of 0.031 µM.
Take alemtuzumab S298A (antibody): the Kd is 0.052 µM.
Substance “alemtuzumab S298A/E333A/K334A (antibody)” showed a Kd of 0.039 µM.
Same read-out and setting: to alemtuzumab V264I (antibody) belongs 0.064 µM; to alemtuzumab V264I/I332E (antibody), 0.017 µM.
